B1: TPR t1 (parent)
chain: GACCAAUCUGCCCUCAGAGCUCGAGAACAUCUUCGGAUGCAGAGGAGGCAGGCUUCGGUGGCGCGAUAGCGCCAACGUCCUCAACCUCCAAUGCAUCCCACCACAUGAUGAUGCCUGAAGAGCCUUGGUUUUUUG

Variants of: B1
Experiment: polymerase ribozyme fitness, log enrichment relative to wild type (log ratio); higher = more active; in vitro selection for triplet polymerase activity
Procedure, shortened: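 PCR was used to build mutant libraries for each subunit of a heterodimeric triplet polymerase ribozyme, which were then transcribed. A single in vitro selection round, in triplicate, used a frozen incubation at −7 °C and recovered extended constructs by gel excision, streptavidin beads and RT-PCR. Fitness is the logarithm of genotype enrichment relative to wild-type enrichment, averaged over replicates with inverse-variance weights. The logarithm is base 2, and after Illumina sequencing only genotypes with ≥10 input reads and ≥1 read per output were kept.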

In order of rising “polymerase ribozyme fitness (log ratio)” value:
1. GACCAAUCUGCCAUCAGAGCUCGAGAACAUCUUCGGAUGCAGGGGAGGCAGGCUUCGGUGGCGCGAUAGGGCCAACGUCCUCAACCUCCAAUGCAUCCCACCACAUGAUGAUGCCCUAAGAGCCUUGGUUUUUUG [C13A A43G C70G U116C G117U]  -6.51
2. GACCAAUCUCCCCUCAGAGCUCGAGAACAUCUUCGGAUGCAGAGGAGGCCGGCUUCGGUGGCGCGAUAUCGCCAACGUCCUCAACCUCCAAUGCAUCCCACCACAUGAUAAUCCCUGAAGAGCCUUGGUUUUUUG [G10C A50C G69U G110A G113C]  -6.42
3. GACCAAUCUACCUUCAGAGCUCGAGAACAUCUUCGGAUGCAGAGGAGGCAGGCUACGGUGGCGCGAUAGCGCCAAUGUCCUCAACCUCCAAUGCAUACCACCACAUGAUGAUGCCGGAAGAGCCUUGGUUUUUUG [G10A C13U U55A C76U C97A U116G]  -6.1
4. GACCAAUCUGCCCUCAGAGCUCGAGAACCUCUUCGGAUGUUGAGGAGGCAGGCUUCGCUGGCGCGAUAGCUCCAACGUCCUCAACCUCCAAUGCAUCCCACCAUAUGAUGAUGCCUGAAGAGCCUUGGAUUUUUG [A29C C40U A41U G58C G71U C104U U129A]  -6.05
5. GACCAAUCUGCCCUCAGAGCUGGAGCACAUCUUCGGAUGCAGAGGAGGCAGGCUUCGGUGGCGCGAUAGCGCCAACGUCCUCAACCUCCAAUGCAUCCCACCACAUGAUUAUGCCUGAAGAGCCUUGGUUUUUUG [C22G A26C G110U]  -6.02
6. GACCAAUCUGCCCUCAGAGCUCGAGAACAUCUUCGGAUGCAGCGGAGGAAGACUUCGGUGGCGCGAUAGCGCUAACGUCCCCAACCUCCAAUGCCUCCCACCACAUGAUGAUGCCUGAAGAGACUUGGUUUUUUG [A43C C49A G52A C73U U81C A95C C123A]  -6.02
7. GACCAAUCUGCCCUCAGAGCUCGAGAACAUCUUCGGAUGCAGAGGAGGCAGGCUUCGGUGGCGCGAUAGCUCCAACGUCCUCAAGCUGCAAUGCAUCCCACCACAUGAUGAUGCAUGAAGAGCCUUGGUUUUUUG [G71U C85G C88G C115A]  -5.75
8. GACCAAUUUGCCCUCAGAGCUCGAGAACAUCUUCGGAUGCAGAGGAUGCAGGCUUCGGUGGCGCGAUAACGCCAACGUCCUCAACCUCCAAUGCAUCCCACCACAUGAUGAUGCCUGAAGAGCCUUGGUUGUUUG [C8U G47U G69A U131G]  -5.7
9. GACCAAUCUGCCCUCAGAGCUCGAGAACAUCUUCGGAUGCAGAGGAGGCAGGCUUCGGUGGCGAGAUAGCGCCAACGUCCUCAACCUCCGAUGCAUCCCACCACAUGAUGAGGCCUGAAGAGCCUUGGUUUUUUG [C64A A90G U112G]  -5.49
10. GACCAAUCUGCCCUCAGGGCUCGAGAACAUCUUCGGAUGCAGAGGAGGCAGGCUUCGGUGGUGCGAUAGCGCCAACGUCCUCAACGUCCAAUGCAUCCCACCACAUGAUGAUGCCUGAAGAGCCUUGGUUUUUUG [A18G C62U C86G]  -4.96
11. GACCAAUCUGCCCUCAAAGCUCGAGAACAUCUUCGGAUGCAGAGGAGGCAGGCUUCGGUGGCGCGAUAGCGGCAACGUCCUCAACCUCCAAUGCAACCCACCACAUGAUGAUGCCUGAAGAGCCUUGGUUUUUUG [G17A C72G U96A]  -4.81
12. GACCAAUCUGCCCUCAGAGCUUGAGAACAUCUUCGGAUGCAGAGGAGGCAGGUUUCGGUGGCGCGAUAGCGCCAACGUCCUCAACCUCCAAUGCAUCCCACCACAUGAUGAUGCCUGAAGAGCCUUGGUUUUUUG [C22U C53U]  -4.37
13. GACCAAUCUGCCCUCAGAGCUCGAGAACAUCUUCGGAUGCAGAGGAUGCAGGCUUCGGUGGCGCGAUAACGCCAACGUCCUCAACCUCCAAUGCAUCCCACCACAUGAUGAUGCCUGAAGAGCCUUGGUUUUUUG [G47U G69A]  -4.35
14. GACCAAUCUGCCCUCAGAGCUCGAGAACAUCUUCGGAUGCAGAUGAGGCAGGCUUCGGUGGAGCGAUAGCGCCAACGUCCUCAUCCUCCAAUGCAUCCCACCACAUGAUGAUGCCUGGAGAGCCUUGGUUUUUUG [G44U C62A A84U A118G]  -4.34
15. GACCAAUCUGCCCUCAGAGCUCGAGAACAUCUUAGGAUGCAGAGGAGGCAGGCGUAGGUGGCGCGAUAGCGCCAACGUCCUCAACCUCCAAUGCAUCCCACCACAUGAUGAUGCCUGAAGAGCCUUGGUUUUUUG [C34A U54G C56A]  -4.3
16. GACCAAUCUGCCCUCAGAGCUCGAGAACAUCUCCGGAUGCAGAGGAGGCAGGCUUAGGUGGCGCGAUAGCGCCAACGUCCUCAACCUCCAAUGCAUCCCACCACAUGAUGAUGCCUGAAGAGCCUUGGUUUUUUG [U33C C56A]  -4.11
17. GACCAAUCUGCCCUCAGAUCUCGAGAACAUCUUCGGAUGCAGAGGAGGCAGGCUUCGGUGGCGCGAUAGCUCCAACGUCCUCAUCCUCCAAUGCAUCCCACCACAUGAUGAUGCCUGAAGAGCCUUGGUUUUUUG [G19U G71U A84U]  -4.08
18. GACCAAUCUACCCUCAGAGCUCGAGAACAUCUUCGGAUGCAGGGGAGGCAGGCUUCGGUGGCGCGAUAGCGCCAAUGUCCUCAACCUCUAAUGCAUCCCACCACAUGAUGCUGCCUGAAGAGCCUUGGUUUUUUG [G10A A43G C76U C89U A111C]  -4
19. GACCAAUCUGCCCUCAGAGAUGGAGAACAUCUUCGGAUGCAGAGGAGGCAGGCUUCGGUGGCGCGAUAGCACCAACGUCCUCAACCUCCAAUGCAUCCCACCACAUGAUGAUGCCUGAAGGGCCUUGGUUUUUUG [C20A C22G G71A A121G]  -3.88
20. GACCAAUCUGCCCUCAGAGCUCGAGAACAUCUUCGGAUGCAGAGGAGGCAGGCUUCGGUGGCGCGAUAGCGGCAACGUCCUCAACCUCCAAUGCAUCCCACCACAUGAUGUUGCCUGAAGAGCCUUGGUUUUUUG [C72G A111U]  -3.82
21. GACCAAUCUGCCCUUAGAGCUCGAGAACAUCUUCGGAUGCACAGGAGGCAGGCUUCGGUGGCGCGAUAGCGCCUACGUCCUCAACCUCCAAUGCAUCCCACCACAUGAUGAUGCCUGAAGAGCCUUGGUUUUUUG [C15U G42C A74U]  -3.74
22. GACCAAUCUGCCCUCAGAGCUCGAGAACAUCUUCGGAUGGAGAGGAGGCAGGCUUCGGUGUCGCGAUAGCGCCAACGUCCUCAACCUCCAUUGCAUCCCACCAUAUGAUGAUGCCUGAAGAGCCUUGGUUUUUUG [C40G G61U A91U C104U]  -3.37
23. GACCAAUCUGCCCUCAGAACUCGAGAACAUCUUCGGAUGCAAAGGAGGCAGGCUUCGGUGGCGCGAUAGCGCCAACGUCCUCAACCUCCAAUGCAUCCCACCACAUGAUGAUGCCUGAAGAGCCUUGGUUUUUUG [G19A G42A]  -3.26
24. GACCAAUCUGCCCUCAGAGCUCGAGAACAUCUUCGGAUGCUGAGGAGGCAGGCUUCGGUGGCGCGAUAGCGCGAACGUCCUCAACCUCCAAUGCAUCCCACCACAUGAUGAUGCCUGAAGAGCCUUGGUUUUUUG [A41U C73G]  -3.06
25. GACCAAUCUGCCCUCAGAGCUCGAGAAAAUCUUCGGAUGCAGAGGAGGCAGGCUUCGGUGGCGCGAUAGCGCUAACGUCCUCAACCUCCAAUGCAUCCCACCACAUGAUGAUGCCUGAAGAGCCUUGGUUUUUUG [C28A C73U]  -3.04
26. GACCAAUUUGCCCUCAGAGCUCGAGAACAUCUUCGGAUGCAGAGGAGGCAGGCUUCGGUGGCGCGAUAGCGCCAACGUCCUCAACAUCCAAUGCAUCCCACCACAUGAUGAUCCCUGAAGAGCCUUGGUGUUUUG [C8U C86A G113C U130G]  -2.85
27. GACCAAUCUGCCCUCAGAGCUCGAGAACAUCUUCGGAUGAAGAGGAGGCAGGCUUCGGUGGCGCGAUAGCGCCAACGUCCUCAACCUCGAAUGCAUCCCACCACAUGAUGAUGCCUGAAGAGCCUUGGUUUUUUG [C40A C89G]  -2.81
28. GACCAAUCUGCCCUCAGAGCUCGAGAACAUCUUCGGAUGCAGUGGAGGCAGGCUUCGGUGGCGCGAUAGCGCCAACGUCCUCAACCUCCAAUACAUCCCACCACAUGAUGAUGCCUGACAAGCCUUGGUUUUUUG [A43U G93A A119C G120A]  -2.58
29. GACCACUCUGCCCUCAGAGCUCGAGAACAUCUUCGGAUGCAGAGGAGUCAGGCUUCGGUGGCGCGAUAGCGUCAACGUCCUCAACCCCCAAUGCAUCCCACCACAUGAUUAUGCCUGAAGAGCCUUGGUUUUUUG [A6C G48U C72U U87C G110U]  -2.52
30. GAACAAUCUGCCCUCAGAGUUCGAGAACAUCUUCGGAUGCAGAGGAGGCAGGCUUCGGUGGCGCGAUAGCGCCAACGUCCUCAACCUCCAAUGCAUCCCAACACCUGAUGAUGUCUGAAGAGCCUUGGUUGUUUG [C3A C20U C101A A105C C114U U131G]  -2.47
31. GACCAAUCUGCCCUCAGAGCUCGAGAACAUCUUCGGAUGCAGAGGAGGCAGCCUGCGGUGGCGCGAUAGCGCCAACGUCCUCCACCUCCAAUGCAUCCCACCACAUGAUGAUGCUUGGAGAGCCUUGGUUUUUUG [G52C U55G A83C C115U A118G]  -2.39
32. GACCAAUCUGCCCUGAGAGCUCGAGAACAUCUUCGGAUGCAGAGGAGGCAGGCUUCGGUGGCGCGAUAGCGCCAACGUCCUCAACCUCCAAUGCAUCCCACCACAUGAUGAUGCCUGAAGAGCCUUGGUUUUUUG [C15G]  -2.16
33. GACCAAUCUACCCUCAGAGCUCGAGAACAUCUUCGGAUGCAGAGGAGGCAGGCUUCGGUGGCGCGAUAGCGCCAACGUCCUCAACCACCAAUGCAUCCCACCACAUGAUGAUGCGUGAAGAGGCUUGGUUUUUUG [G10A U87A C115G C123G]  -1.54
34. GAGCAAUCUGCCCUCAGAGCUCGAGAACAUCUUCGGAUGCAGAGGAGGCAGGCUUCGGUGGCGCGAUAGCGCCAACGUCCUCAACCUCCAAUGCAUCCCACCACAUGAUGAUGCCUGAAGAGCCUUGUUUUUUUG [C3G G128U]  -1.24
35. GACCAAUCUGCCCUCAGAGCUCGAGAACAUCUUCGGAUGUAGAGGAGGCAGGCUUCGGUGGCGCGAUAGCGCCAACGUCCUCAACCUCCAAUGCAUCCCACCACAUGAUGAUGCCUGGAGAGCCUUGGUUUUUUG [C40U A118G]  -1.24
36. GACCAAUCUGCCCUCAGAGCUCGAGAACAUCUUCGGAUGCAGAGGAGGCAGGCUUCGGUGGCGCGAUAGCGCCAACGCCCUUAACCUCCAAUGCAUCCCACCACAUGAUGAUGCCUGAAGAGGCUUCGUUUUUUG [U78C C82U C123G G127C]  -1.21
37. GACCAAUCUGCCCUCAGAGCUCGAGAACAUCUUCGGAUCCAGAGGAGGCAGGCUUCGGUGGCGCGAUAGCACCAACGUCCUCAACCUCCAAUGCAUCCCACCACAUGAUGAUGCCUGAAGAGCCUUGGUUUUUUG [G39C G71A]  -1.21
38. GACCAAUCUGCCCUCAGAGCUCGAGUACAUCUUCGGAUGCAGAGGAGGCAGGCUUCGGUGGCGCGAUAGCGCCGACGUCCUCAACCUCCAAUGCAUCCCACCACAUGAUGAUGCCUGAAGGGCCUUGGUUUUUUG [A26U A74G A121G]  -1.18
39. GACCAAUCUGCCCUCAGAGCUCGAGAACAUCUUCGGAUGCAGAGGAGGCAGGCUUCGGUGGCGCGAUAGCGCCAACGUCCUUAACCUCCAAUGCAUCCCACCACAUGAUGAUACCUGAAGAGCCUUGGUUUUUUG [C82U G113A]  -1.1
40. GACCAAUCUGCCCUCAGAGCUCGAGAACAUCUUCGGAUGCAGAGGAGGCAGGCUUCGGUGGCGCGAUAGCGCCAACGUCCUCAACCUCCAAUGCAUCCCAGCACAUGAUGAUGCCUGAAGCGCCUUGGUUUUUUG [C101G A121C]  -0.583
41. GACCAAUCUGCCCUCAGAGCUCGAGAACAUCUUCGGAUGCUGAGGAGGCAGGCUUCGGUGGCGCGAUAGCGCCAACGUCCUCAACCUCCAAUGCAUCCCACCACAUGAUGACGCCUGAAGAGCCUUGGUUUUUUG [A41U U112C]  0.631
42. GACCAAUCUGCUCUCAGAGCUCGAGAACAUCUUCGGAUGCAGAGGAGGCAGGCUUCGGUGGCGCGAUAGCGCCAACGUCCUCAACCUCCAAUGCAUCCCACCACAUGAUGAUGCCUGAAGGGCCUUGGUUUUUUG [C12U A121G]  1.82

Source: the RNAGym collection of RNA variant scans (doi:10.1073/pnas.2313332121)
